Results on one substance are retold here after patent publication US5523209.

The target of experiment [1] is integrin α5 β1 on CHO cells (hamster). Put plainly: binding of soluble 125I-Fn to CHO cells.
Experiment [2] shares this target. Nature of the experiment: 125I-Fn binding to CHO cells washed free of NaN3 and 2-deoxyglucose.

Take “fibronectin (from UniProt P02751) (ligand)”: in experiment [1], the Kd – broadly, the concentration at which binding is half-saturated – was 100 nM. Moreover, in experiment [2], the percent of the high affinity binding restored after washout of the metabolic inhibitors worked out at 75%.
